Drawing on paper PMC9935876, “Structure of the planar cell polarity cadherins Fat4 and Dachsous1” (Nature Communications, 2023), this text covers ratio to parent for two variants.

B1: human Fat4(EC1–4) [human] / human Dchs1(EC1–4) [human] (parent complex)
chain 1: DPAEPRQVFQVLEEQPPGTLVGTIQTRPGFTYRLSESHALFAINSSTGALYTTSTIDRESLPSDVINLVVLSSAPTYPTEVRVLVRDLNDNAPVFPDPSIVVTFKEDSSSGRQVILDTATDSDIGSNGVDHRSYRIIRGNEAGRFRLDITLNPSGEGAFLHLVSKGGLDREVTPQYQLLVEVEDKGEPKRRGYLQVNVTVQDINDNPPVFGSSHYQAGVPEDAVVGSSVLQVAAADADEGTNADIRYRLQDEGTPFQMDPETGLITVREPLDFEARRQYSLTVQAMDRGVPSLTGRAEALIQLLDVNDNDPVVKFRYFPATSRYASVDENAQVGTVVALLTVTDADSPAANGNISVQILGGNEQRHFEVQSSKVPNLSLIKVASALDRERIPSYNLTVSVSDNYGAPPGAAVQARSSVASLVIFVNDINDHPPVF
chain 2: DPQAGSLDLQIDEEQPAGTLIGDISAGLPAGTAAPLMYFISAQEGSGVGTDLAIDEHSGVVRTARVLDREQRDRYRFTAVTPDGATVEVTVRVADINDHAPAFPQARAALQVPEHTAFGTRYPLEPARDADAGRLGTQGYALSGDGAGETFRLETRPGPDGTPVPELVVTGELDRENRSHYMLQLEAYDGGSPPRRAQALLDVTLLDINDHAPAFNQSRYHAVVSESLAPGSPVLQVFASDADAGVNGAVTYEINRRQSEGDGPFSIDAHTGLLQLERPLDFEQRRVHELVVQARDGGAHPELGSAFVTVHVRDANDNQPSMTVIFLSADGSPQVSEAAPPGQLVARISVSDPDDGDFAHVNVSLEGGEGHFALSTQDSVIYLVCVARRLDREERDAYNLRVTATDSGSPPLRAEAAFVLHVTDVNDNAPAF
B2: human Dchs1(EC1–4) [human] / human Fat4(EC1–4) [human] (parent complex)
chain 1: B1 chain 2
chain 2: B1 chain 1

One experiment covers variants of B1. Nature of the experiment: ITC; parent: 1; read off a plot. (In ITC the heat of successive injections is recorded.)
For chain 1 F318A, the ratio to parent was around 1.8.

The variants in another experiment derive from B2. Nature of the experiment: ITC; parent: 1; read off a plot.
For chain 1 F39A, the ratio to parent is around 4.4.
